Reference: the supplement of paper PMC9112550, “Optimization of the antimicrobial peptide Bac7 by deep mutational scanning” (BMC Biology, 2022)

System: Escherichia coli TOP10
Experiment: shrunken log2 fold change of peptide-encoding DNA abundance (4.5 h post-induction vs induction); higher = less antimicrobial activity (less host growth inhibition)
Details: time post-induction: 4.5 h; library: site-saturation at positions 5, 18, 19, 20
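Note: peptides expressed intracellularly from a pBAD plasmid library in pooled LB shake-flask culture, induced with 0.3% L-arabinose, DNA abundance read by NGS, three biological replicates, DESeq2 with apeglm shrinkage.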

Row | Sequence | shrunken log2 fold change
1 | RRIRWRPPRLPRPRPRPPDSPRP | 0.0564
2 | RRIRLRPPRLPRPRPRPKAPPRP | 0.00522
3 | RRIRSRPPRLPRPRPRPHAEPRP | 0.156
4 | RRIRFRPPRLPRPRPRPYAEPRP | -0.823
5 | RRIRDRPPRLPRPRPRPLSYPRP | 0.194
6 | RRIRHRPPRLPRPRPRPIKHPRP | -0.341
7 | RRIRARPPRLPRPRPRPPEHPRP | 0.606
8 | RRIRARPPRLPRPRPRPCPAPRP | 0.209
9 | RRIRDRPPRLPRPRPRPMNNPRP | -0.424
10 | RRIRMRPPRLPRPRPRPNVPPRP | 0.0131
11 | RRIRIRPPRLPRPRPRPWWLPRP | -0.0152
12 | RRIRPRPPRLPRPRPRPWFQPRP | -0.21
13 | RRIRVRPPRLPRPRPRPGPEPRP | 0.22
14 | RRIRVRPPRLPRPRPRPPIMPRP | -0.486
15 | RRIRERPPRLPRPRPRPRTPPRP | 0.214
16 | RRIRHRPPRLPRPRPRPEVYPRP | -0.0062
17 | RRIRFRPPRLPRPRPRPFWIPRP | -0.357
18 | RRIRGRPPRLPRPRPRPEESPRP | 1.82
19 | RRIRSRPPRLPRPRPRPLNAPRP | 0.213
20 | RRIRVRPPRLPRPRPRPHWKPRP | -0.14
21 | RRIRYRPPRLPRPRPRPRNWPRP | -0.0364
22 | RRIRTRPPRLPRPRPRPSQVPRP | -0.2
23 | RRIRQRPPRLPRPRPRPWIYPRP | 0.0039

Row | Sequence | shrunken log2 fold change
24 | RRIRDRPPRLPRPRPRPKKPPRP | -0.0462
25 | RRIRVRPPRLPRPRPRPFRGPRP | 0.0214
26 | RRIRTRPPRLPRPRPRPAKSPRP | -0.055
27 | RRIRYRPPRLPRPRPRPQWYPRP | -0.118
28 | RRIRKRPPRLPRPRPRPYQFPRP | -0.17
29 | RRIRGRPPRLPRPRPRPQVLPRP | 0.0422
30 | RRIRMRPPRLPRPRPRPQYHPRP | -0.299
31 | RRIRGRPPRLPRPRPRPDTYPRP | 0.241
32 | RRIRVRPPRLPRPRPRPYFVPRP | 0.263
33 | RRIRFRPPRLPRPRPRPRVLPRP | 0.121
34 | RRIRLRPPRLPRPRPRPRFYPRP | 0.074
35 | RRIRRRPPRLPRPRPRPYGKPRP | -0.813
36 | RRIRQRPPRLPRPRPRPPHLPRP | 0.205
37 | RRIRMRPPRLPRPRPRPQCGPRP | 0.096
38 | RRIRRRPPRLPRPRPRPTKCPRP | 0.114
39 | RRIRYRPPRLPRPRPRPLLKPRP | -0.634
40 | RRIRDRPPRLPRPRPRPQGRPRP | -0.0642
41 | RRIRERPPRLPRPRPRPQRNPRP | -0.214
42 | RRIRYRPPRLPRPRPRPNESPRP | 0.0169
43 | RRIRNRPPRLPRPRPRPDNDPRP | -0.579
44 | RRIRDRPPRLPRPRPRPWIFPRP | 0.148
45 | RRIRFRPPRLPRPRPRPLNYPRP | -0.755
46 | RRIRVRPPRLPRPRPRPEMGPRP | 0.104

Row | Sequence | shrunken log2 fold change
47 | RRIRIRPPRLPRPRPRPQCFPRP | 0.0204
48 | RRIRRRPPRLPRPRPRPDIWPRP | 0.418
49 | RRIRCRPPRLPRPRPRPISGPRP | 0.0437
50 | RRIRIRPPRLPRPRPRPMRVPRP | 0.109
51 | RRIRMRPPRLPRPRPRPNAQPRP | 0.43
52 | RRIRQRPPRLPRPRPRPQNPPRP | -0.0336
53 | RRIRRRPPRLPRPRPRPYTYPRP | 0.0668
54 | RRIRCRPPRLPRPRPRPSPIPRP | -0.32
55 | RRIRFRPPRLPRPRPRPNLTPRP | -0.347
56 | RRIRPRPPRLPRPRPRPTRLPRP | 0.769
57 | RRIRGRPPRLPRPRPRPSNEPRP | 0.131
58 | RRIRTRPPRLPRPRPRPRGPPRP | 1.02
59 | RRIRDRPPRLPRPRPRPFYRPRP | 0.03
60 | RRIRERPPRLPRPRPRPSRTPRP | -0.111
61 | RRIRQRPPRLPRPRPRPHCEPRP | -0.0142
62 | RRIRWRPPRLPRPRPRPNDFPRP | -0.0161
63 | RRIRDRPPRLPRPRPRPNNWPRP | -0.11
64 | RRIRIRPPRLPRPRPRPPEVPRP | -0.173
65 | RRIRKRPPRLPRPRPRPFYWPRP | 0.144
66 | RRIRWRPPRLPRPRPRPEGHPRP | 0.792
67 | RRIRCRPPRLPRPRPRPNNGPRP | -0.451
68 | RRIRTRPPRLPRPRPRPRMMPRP | 1.32
69 | RRIRSRPPRLPRPRPRPTRLPRP | 0.699

Row | Sequence | shrunken log2 fold change
70 | RRIRARPPRLPRPRPRPTFQPRP | 0.529
71 | RRIRWRPPRLPRPRPRPAKDPRP | 0.0218
72 | RRIRYRPPRLPRPRPRPVFSPRP | -0.303
73 | RRIRDRPPRLPRPRPRPDLGPRP | 0.829
74 | RRIRSRPPRLPRPRPRPAMQPRP | -0.173
75 | RRIRLRPPRLPRPRPRPVNWPRP | 0.0772
76 | RRIRPRPPRLPRPRPRPERRPRP | 0.158
77 | RRIRGRPPRLPRPRPRPKNPPRP | 0.489
78 | RRIRNRPPRLPRPRPRPPHNPRP | 0.216
79 | RRIRHRPPRLPRPRPRPYNGPRP | -0.835
80 | RRIRARPPRLPRPRPRPVNTPRP | -0.0807
81 | RRIRARPPRLPRPRPRPNTRPRP | 0.12
82 | RRIRVRPPRLPRPRPRPDEAPRP | -0.0574
83 | RRIRSRPPRLPRPRPRPAQFPRP | -0.114
84 | RRIRRRPPRLPRPRPRPSTDPRP | -0.14
85 | RRIRNRPPRLPRPRPRPQQKPRP | 0.0694
86 | RRIRARPPRLPRPRPRPCHPPRP | 0.194
87 | RRIRIRPPRLPRPRPRPAGWPRP | 0.582
88 | RRIRERPPRLPRPRPRPFEYPRP | 0.0143
89 | RRIRQRPPRLPRPRPRPFADPRP | -0.0142
90 | RRIRARPPRLPRPRPRPHWCPRP | 0.0773
91 | RRIRFRPPRLPRPRPRPEHSPRP | -0.00202
